19 molecules from patent publication US6677436 can be followed below.

Test [1] addresses T1, human tissue factor (TF) on human bladder carcinoma cells J82 (human, UniProt P13726 33-295).
T1 construct: whole, on cells; J82 is described as a TF-high expression cell line; also called the antigen; J82 (ATCC HTB-1)
The test can be described thus: cell ELISA on fixed J82 cells.

Test [2] addresses T2, soluble human TF (human TF amino acids 1-219 with the FLAG peptide at the C-terminal) (human, UniProt P13726 33-251).
T2 construct: Expressed in CHO cells and purified; The entry is the whole soluble TF construct (TF 1-219 plus FLAG peptide M2); The entry may include the signal peptide; also called shTF; soluble TF
The test can be described thus: BIACORE; antibody captured on Protein G chip, soluble TF as analyte; mean ± SD, n = 3.

Another test deals with recombinant Protein G (UniProt P19909). As to the kind of experiment: BIACORE; 10 µl of 72 nM antibody injected over Protein G immobilized on CM5 chip.

T2 sequence (P13726 other isoform, or with tags, fused parts or gaps limits assumed): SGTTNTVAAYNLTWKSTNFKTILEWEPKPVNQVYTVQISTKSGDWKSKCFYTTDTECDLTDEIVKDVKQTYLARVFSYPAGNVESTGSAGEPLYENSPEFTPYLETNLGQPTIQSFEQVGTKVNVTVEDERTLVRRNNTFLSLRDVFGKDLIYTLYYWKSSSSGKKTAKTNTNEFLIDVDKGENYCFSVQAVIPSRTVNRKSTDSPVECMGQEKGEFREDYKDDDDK
T1 sequence (P13726 33-295): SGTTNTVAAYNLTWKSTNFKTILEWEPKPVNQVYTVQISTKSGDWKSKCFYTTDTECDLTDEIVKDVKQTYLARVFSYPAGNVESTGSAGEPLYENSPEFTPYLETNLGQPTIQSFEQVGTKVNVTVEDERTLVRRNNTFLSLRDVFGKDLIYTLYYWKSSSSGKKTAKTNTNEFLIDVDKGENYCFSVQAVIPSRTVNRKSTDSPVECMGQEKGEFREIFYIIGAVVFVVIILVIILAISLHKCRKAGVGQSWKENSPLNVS

B1: H chain humanized version a/L chain chimeric antibody (antibody, V domains shown)
VH: QVQLLESGAVLARPGTSVKISCKASGFNIKDYYMHWVKQRPGQGLEWIGGNDPANGHSMYDPKFQGRAKLTAATSASIAYLEFSSLTNEDSAVYYCARDSGYAMDYWGQGTLVTVSS
VL: DIKMTQSPSSMYASLGERVTITCKASQDIKSFLSWYQQKPWKSPKTLIYYATSLADGVPSRFSGSGSGQDYSLTINNLESDDTATYYCLQHGESPYTFGGGTKLEIK
notes: Expressed from vector N5KG4P (IgG4-type, human Cgamma4 and Ckappa); also called a-ch; hHva-chLv/N5KG4P
Regarding B1, in test [1], the binding result is listed as “binds”.

B2: H chain humanized version c/L chain chimeric antibody (antibody, V domains shown)
VH: QVQLLESGAVLARPGTSVKISCKASGFNIKDYYMHWVKQRPGQGLEWIGGNDPANGHSMYDPKFQGRVTMLVDTSKNQFSLRLSSVTAADTAVYYCARDSGYAMDYWGQGTLVTVSS
VL: DIKMTQSPSSMYASLGERVTITCKASQDIKSFLSWYQQKPWKSPKTLIYYATSLADGVPSRFSGSGSGQDYSLTINNLESDDTATYYCLQHGESPYTFGGGTKLEIK
notes: Expressed from vector N5KG4P (IgG4-type, human Cgamma4 and Ckappa); also called c-ch; hHvc-chLv/N5KG4P
In the case of B2, in test [1], the binding result is listed as “binds”.

B3: H chain humanized version i/L chain humanized version b antibody (antibody, V domains shown)
VH: QVQLLESGAVLARPGTSVKISCKASGFNIKDYYMHWVKQRPGQGLEWIGGNDPANGHSMYDPKFQGRVTITADTSTSTVFMELSSLRSEDTAVYYCARDSGYAMDYWGQGTLVTVSS
VL: DIQMTQSPSSLSASVGDRVTITCKASQDIKSFLSWYQQKPGKAPKLLIYYATSLADGVPSRFSGSGSGTDYTLTISSLQPEDFATYYCLQHGESPYTFGGGTKVEIK
notes: Expressed from vector N5KG4P (IgG4-type, human Cgamma4 and Ckappa); also called hHvi-hLvb/N5KG4P
In test [2], B3 gave a Kd of 1.39 nM, a koff of 0.000649 s⁻¹ and a kon of 467000 M⁻¹ s⁻¹.

B4: H chain humanized version a/L chain humanized version a antibody (antibody, V domains shown)
VH: QVQLLESGAVLARPGTSVKISCKASGFNIKDYYMHWVKQRPGQGLEWIGGNDPANGHSMYDPKFQGRAKLTAATSASIAYLEFSSLTNEDSAVYYCARDSGYAMDYWGQGTLVTVSS
VL: DIQMTQSPSSLSASVGDRVTITCKASQDIKSFLSWYQQKPGKAPKLLIYYATSLADGVPSRFSGSGSGTDFTLTISSLQPEDFATYYCLQHGESPYTFGGGTKVEIK
notes: Expressed from vector N5KG4P (IgG4-type, human Cgamma4 and Ckappa); also called hHva-hLva/N5KG4P
Regarding B4, the binding result in test [1] is listed as “binds”.

B5: H chain chimeric/L chain humanized version b antibody (antibody, V domains shown)
VH: EVQLQQSGTNLVRPGALVKLSCKGSGFNIKDYYMHWVKQRPEQGLEWIGGNDPANGHSMYDPKFQGKASITADTSSNTAYLQLSSLTSEDTAVYFCARDSGYAMDYWGQGTSVTVSS
VL: DIQMTQSPSSLSASVGDRVTITCKASQDIKSFLSWYQQKPGKAPKLLIYYATSLADGVPSRFSGSGSGTDYTLTISSLQPEDFATYYCLQHGESPYTFGGGTKVEIK
notes: Expressed from vector N5KG4P (IgG4-type, human Cgamma4 and Ckappa); also called ch-b; chHv-hLvb/N5KG4P
Consider B5, for which the binding result in test [1] is reported as “binds”.

B6: H chain humanized version b/L chain chimeric antibody (antibody, V domains shown)
VH: QVQLLESGAVLARPGTSVKISCKASGFNIKDYYMHWVKQRPGQGLEWIGGNDPANGHSMYDPKFQGRVTITADTSTNTAYMELSSLRSEDTAIYYCARDSGYAMDYWGQGTLVTVSS
VL: DIKMTQSPSSMYASLGERVTITCKASQDIKSFLSWYQQKPWKSPKTLIYYATSLADGVPSRFSGSGSGQDYSLTINNLESDDTATYYCLQHGESPYTFGGGTKLEIK
notes: Expressed from vector N5KG4P (IgG4-type, human Cgamma4 and Ckappa); also called b-ch; hHvb-chLv/N5KG4P
On to B6, for which the binding result in test [1] is given as “binds”.

B7: H chain chimeric/L chain humanized version c antibody (antibody, V domains shown)
VH: EVQLQQSGTNLVRPGALVKLSCKGSGFNIKDYYMHWVKQRPEQGLEWIGGNDPANGHSMYDPKFQGKASITADTSSNTAYLQLSSLTSEDTAVYFCARDSGYAMDYWGQGTSVTVSS
VL: DIQMTQSPSSLSASVGDRVTITCKASQDIKSFLSWYQQKPGKAPKLLIYYATSLADGVPSRFSGSGSGTDYTLTISSLQPEDIATYYCLQHGESPYTFGGGTKVEIK
notes: Expressed from vector N5KG4P (IgG4-type, human Cgamma4 and Ckappa); also called ch-c; chHv-hLvc/N5KG4P
Turning to B7, the binding result in test [1] is reported as “binds”.

B8: H chain humanized version b/L chain humanized version a antibody (antibody, V domains shown)
VH: QVQLLESGAVLARPGTSVKISCKASGFNIKDYYMHWVKQRPGQGLEWIGGNDPANGHSMYDPKFQGRVTITADTSTNTAYMELSSLRSEDTAIYYCARDSGYAMDYWGQGTLVTVSS
VL: DIQMTQSPSSLSASVGDRVTITCKASQDIKSFLSWYQQKPGKAPKLLIYYATSLADGVPSRFSGSGSGTDFTLTISSLQPEDFATYYCLQHGESPYTFGGGTKVEIK
notes: Expressed from vector N5KG4P (IgG4-type, human Cgamma4 and Ckappa); also called b-a; hHvb-hLva/N5KG4P
On to B8, for which, in test [1], the binding result is given as “binds”.

B9: H chain humanized version i/L chain chimeric antibody (antibody, V domains shown)
VH: QVQLLESGAVLARPGTSVKISCKASGFNIKDYYMHWVKQRPGQGLEWIGGNDPANGHSMYDPKFQGRVTITADTSTSTVFMELSSLRSEDTAVYYCARDSGYAMDYWGQGTLVTVSS
VL: DIKMTQSPSSMYASLGERVTITCKASQDIKSFLSWYQQKPWKSPKTLIYYATSLADGVPSRFSGSGSGQDYSLTINNLESDDTATYYCLQHGESPYTFGGGTKLEIK
notes: Expressed from vector N5KG4P (IgG4-type, human Cgamma4 and Ckappa); also called i-ch; hHvi-chLv/N5KG4P
As to B9, the binding result in test [1] was “binds”.

B10: H chain humanized version d3/L chain humanized version b antibody (antibody, V domains shown)
VH: QVQLLESGAVLARPGTSVKISCKASGFNIKDYYMHWVRQAPGQGLEWIGGNDPANGHSMYDPKFQGRVTITADESTSTAYMELSSLRSEDSAVYFCARDSGYAMDYWGQGTLVTVSS
VL: DIQMTQSPSSLSASVGDRVTITCKASQDIKSFLSWYQQKPGKAPKLLIYYATSLADGVPSRFSGSGSGTDYTLTISSLQPEDFATYYCLQHGESPYTFGGGTKVEIK
notes: Expressed from vector N5KG4P (IgG4-type, human Cgamma4 and Ckappa); also called d3-b; hHvd3-hLvb/N5KG4P
Take B10: the binding result in test [1] is “binds”.

B11: H chain humanized version g/L chain humanized version b antibody (antibody, V domains shown)
VH: QVQLLESGAVLARPGTSVKISCKASGFNIKDYYMHWVKQRPGQGLEWIGGNDPANGHSMYDPKFQGKATLTADESSSTAYMQLSSLRSEDSAVYSCARDSGYAMDYWGQGTLVTVSS
VL: DIQMTQSPSSLSASVGDRVTITCKASQDIKSFLSWYQQKPGKAPKLLIYYATSLADGVPSRFSGSGSGTDYTLTISSLQPEDFATYYCLQHGESPYTFGGGTKVEIK
notes: Expressed from vector N5KG4P (IgG4-type, human Cgamma4 and Ckappa); also called g-b; hHvg-hLvb/N5KG4P
B11: in test [1], the binding result is “binds”.

B12: H chain humanized version i/L chain humanized version b2 antibody (antibody, V domains shown)
VH: QVQLLESGAVLARPGTSVKISCKASGFNIKDYYMHWVKQRPGQGLEWIGGNDPANGHSMYDPKFQGRVTITADTSTSTVFMELSSLRSEDTAVYYCARDSGYAMDYWGQGTLVTVSS
VL: DIQMTQSPSSLSASVGDRVTITCKASQDIKSFLSWYQQKPEKAPKSLIYYATSLADGVPSRFSGSGSGTDYTLTISSLQPEDFATYYCLQHGESPYTFGGGTKVEIK
notes: Expressed from vector N5KG4P (IgG4-type, human Cgamma4 and Ckappa); also called i-b2; ib2
In test [2], B12 yielded a Kd of 1.17 nM, a koff of 0.000635 s⁻¹ and a kon of 544000 M⁻¹ s⁻¹. In addition, the RU bound in the test with recombinant Protein G is 1000 RU.

B13: H chain humanized version b/L chain humanized version c antibody (antibody, V domains shown)
VH: QVQLLESGAVLARPGTSVKISCKASGFNIKDYYMHWVKQRPGQGLEWIGGNDPANGHSMYDPKFQGRVTITADTSTNTAYMELSSLRSEDTAIYYCARDSGYAMDYWGQGTLVTVSS
VL: DIQMTQSPSSLSASVGDRVTITCKASQDIKSFLSWYQQKPGKAPKLLIYYATSLADGVPSRFSGSGSGTDYTLTISSLQPEDIATYYCLQHGESPYTFGGGTKVEIK
notes: Humanized antibodies were expressed from vector N5KG4P (IgG4-type); the construction of the b-c plasmid itself is not described; also called b-c
Regarding B13, the binding result in test [1] is listed as “binds”.

B14: H chain humanized version i/L chain humanized version b1 antibody (antibody, V domains shown)
VH: QVQLLESGAVLARPGTSVKISCKASGFNIKDYYMHWVKQRPGQGLEWIGGNDPANGHSMYDPKFQGRVTITADTSTSTVFMELSSLRSEDTAVYYCARDSGYAMDYWGQGTLVTVSS
VL: DIQMTQSPSSLSASVGDRVTITCKASQDIKSFLSWFQQKPGKSPKTLIYYATSLADGVPSRFSGSGSGTDYTLTISSLQPEDFATYYCLQHGESPYTFGGGTKVEIK
notes: Expressed from vector N5KG4P (IgG4-type, human Cgamma4 and Ckappa); also called i-b1; hHvi-hLvb1/N5KG4P
Regarding B14, the binding result in test [1] is “binds”.

B15: H chain chimeric/L chain humanized version a antibody (antibody, V domains shown)
VH: EVQLQQSGTNLVRPGALVKLSCKGSGFNIKDYYMHWVKQRPEQGLEWIGGNDPANGHSMYDPKFQGKASITADTSSNTAYLQLSSLTSEDTAVYFCARDSGYAMDYWGQGTSVTVSS
VL: DIQMTQSPSSLSASVGDRVTITCKASQDIKSFLSWYQQKPGKAPKLLIYYATSLADGVPSRFSGSGSGTDFTLTISSLQPEDFATYYCLQHGESPYTFGGGTKVEIK
notes: Expressed from vector N5KG4P (IgG4-type, human Cgamma4 and Ckappa); also called chHv-hLva/N5KG4P
B15: the binding result in test [1] is given as “binds”.

B16: H chain humanized version e/L chain chimeric antibody (antibody, V domains shown)
VH: QVQLLESGAVLARPGTSVKISCKASGFNIKDYYMHWVKQRPGQGLEWIGGNDPANGHSMYDPKFQGRVSITADESTKIAYMELNSLRSEDTAVYFCARDSGYAMDYWGQGTLVTVSS
VL: DIKMTQSPSSMYASLGERVTITCKASQDIKSFLSWYQQKPWKSPKTLIYYATSLADGVPSRFSGSGSGQDYSLTINNLESDDTATYYCLQHGESPYTFGGGTKLEIK
notes: Expressed from vector N5KG4P (IgG4-type, human Cgamma4 and Ckappa); also called e-ch; hHve-chLv/N5KG4P
As for B16, in test [1], the binding result is reported as “binds”.

B17: H chain humanized version d/L chain chimeric antibody (antibody, V domains shown)
VH: QVQLLESGAVLARPGTSVKISCKASGFNIKDYYMHWVKQRPGQGLEWIGGNDPANGHSMYDPKFQGRVTITADESTSTAYMELSSLRSEDSAVYFCARDSGYAMDYWGQGTLVTVSS
VL: DIKMTQSPSSMYASLGERVTITCKASQDIKSFLSWYQQKPWKSPKTLIYYATSLADGVPSRFSGSGSGQDYSLTINNLESDDTATYYCLQHGESPYTFGGGTKLEIK
notes: Expressed from vector N5KG4P (IgG4-type, human Cgamma4 and Ckappa); also called d-ch; hHvd-chLv/N5KG4P
As to B17, in test [1], the binding result is recorded as “binds”.

B18: H chain humanized version b/L chain humanized version b2 antibody (antibody, V domains shown)
VH: QVQLLESGAVLARPGTSVKISCKASGFNIKDYYMHWVKQRPGQGLEWIGGNDPANGHSMYDPKFQGRVTITADTSTNTAYMELSSLRSEDTAIYYCARDSGYAMDYWGQGTLVTVSS
VL: DIQMTQSPSSLSASVGDRVTITCKASQDIKSFLSWYQQKPEKAPKSLIYYATSLADGVPSRFSGSGSGTDYTLTISSLQPEDFATYYCLQHGESPYTFGGGTKVEIK
notes: Expressed from vector N5KG4P (IgG4-type, human Cgamma4 and Ckappa); also called b-b2; hHvb-hLvb2/N5KG4P
As to B18, the binding result in test [1] is listed as “binds”.

B19: H chain humanized version b3/L chain humanized version b antibody (antibody, V domains shown)
VH: QVQLLESGAVLARPGTSVKISCKASGFNIKDYYMHWVRQAPGQGLEWIGGNDPANGHSMYDPKFQGRVTITADTSTNTAYMELSSLRSEDTAIYYCARDSGYAMDYWGQGTLVTVSS
VL: DIQMTQSPSSLSASVGDRVTITCKASQDIKSFLSWYQQKPGKAPKLLIYYATSLADGVPSRFSGSGSGTDYTLTISSLQPEDFATYYCLQHGESPYTFGGGTKVEIK
notes: Expressed from vector N5KG4P (IgG4-type, human Cgamma4 and Ckappa); also called b3-b; hHvb3-hLvb/N5KG4P
B19: the binding result in test [1] is on record as “binds”.
